Measured values from the supplement of paper PMC6757056.
± gives the standard deviation of the averaged measurements.

B1: library; a variant is named by its letters at N, in order (parent)
chain: GCUGUCACCGAGAAACUGUGAAGUAUAUCUUAAACCUGGGCACUUAAAAGAUAUAUGGAGUUAGUAGUGCAACCUGCUCGGUCUGAUGAGUCCNNNNNNGGACGAAACAGC

Legend:
[1] = variants of: B1; assay: FACS-Seq fitted mean relative fluorescence mCherry/BFP without ligand (log10 relative fluorescence); HEK293T; ligand: cyclic di-GMP (c-di-GMP-II aptamer); higher = higher reporter protein expression; conditions: ligand present: no
Outline: (§1)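 The ribozyme switch sat in an mCherry reporter, delivered by lentivirus into HEK293T libraries along with an EF1α-BFP marker. Enriched cells were incubated 48 h with or without ligand, sorted into 6 bins by mCherry/BFP, and bin genomic DNA was PCR-amplified, barcoded and MiSeq-sequenced. Fluorescence equals the fitted normal mean of the bin counts after normalization. Those log10(mCherry/BFP) means were scaled to five spiked-in control ribozymes.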

[2] = variants of: B1; assay: normalized RNA/DNA level without ligand (relative to sTRSVctl = 100) (log10 (% of sTRSVctl)); HEK293T; ligand: cyclic di-GMP (c-di-GMP-II aptamer); higher = less ribozyme self-cleavage, higher mRNA level; conditions: reporter: mCherry (pCS4076), ligand present: no
Experimental: (§2)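 Hammerhead (sTRSV) ribozyme switch libraries with a ligand aptamer grafted on stem I and a randomized N4-6 loop II, cloned into the 3' UTR of mCherry and transiently transfected into HEK293T cells; RNA-Seq 72 h post transfection with ligand added 1 h before transfection; RNA read count / plasmid DNA read count normalized to the non-cleaving sTRSVctl (x100), log10; sequences with >100 DNA reads. FACS-Seq: lentiviral library sorted into 6 bins after 48 h ligand, log-normal fit mean of mCherry/BFP scaled to controls. Printed sequences are partial switch sequences.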

[3] = variants of: B1; assay: FACS-Seq fitted mean relative fluorescence mCherry/BFP with ligand (log10 relative fluorescence); HEK293T; ligand: cyclic di-GMP (c-di-GMP-II aptamer); ligand concentration (+) FACS-Seq: 1 mM; higher = higher reporter protein expression; conditions: ligand present: yes
Outline: as §1

[4] = variants of: B1; assay: normalized RNA/DNA level with ligand (relative to sTRSVctl = 100) (log10 (% of sTRSVctl)); HEK293T; ligand: cyclic di-GMP (c-di-GMP-II aptamer); ligand concentration (+) RNA-Seq: 1 mM; higher = less ribozyme self-cleavage, higher mRNA level; conditions: reporter: mCherry (pCS4076), ligand present: yes
Experimental: as §2

Variant	FACS-Seq fitted mean (log10) [1]	normalized RNA/DNA level without ligand (log10) [2]	FACS-Seq fitted mean (log10) [3]	normalized RNA/DNA level with ligand (log10) [4]
GCUGUCACCGAGAAACUGUGAAGUAUAUCUUAAACCUGGGCACUUAAAAGAUAUAUGGAGUUAGUAGUGCAACCUGCUCGGUCUGAUGAGUCCACCUGAGGACGAAACAGC [ACCUGA]	-0.424 ± 0.033	1.52 ± 0.032	-0.159 ± 0.035	1.72 ± 0.1
GCUGUCACCGAGAAACUGUGAAGUAUAUCUUAAACCUGGGCACUUAAAAGAUAUAUGGAGUUAGUAGUGCAACCUGCUCGGUCUGAUGAGUCCCAAUCCGGACGAAACAGC [CAAUCC]	-0.487 ± 0.028	1.75 ± 0.049	-0.368 ± 0.016	1.87 ± 0.11
GCUGUCACCGAGAAACUGUGAAGUAUAUCUUAAACCUGGGCACUUAAAAGAUAUAUGGAGUUAGUAGUGCAACCUGCUCGGUCUGAUGAGUCCAUUGAAGGACGAAACAGC [AUUGAA]	-0.159 ± 0.14	1.48 ± 0.079	0.152 ± 0.0043	1.66 ± 0.031
GCUGUCACCGAGAAACUGUGAAGUAUAUCUUAAACCUGGGCACUUAAAAGAUAUAUGGAGUUAGUAGUGCAACCUGCUCGGUCUGAUGAGUCCCAUGACGGACGAAACAGC [CAUGAC]	-0.0513 ± 0.12	1.63 ± 0.033	0.217 ± 0.061	1.79 ± 0.13
GCUGUCACCGAGAAACUGUGAAGUAUAUCUUAAACCUGGGCACUUAAAAGAUAUAUGGAGUUAGUAGUGCAACCUGCUCGGUCUGAUGAGUCCGCCGACGGACGAAACAGC [GCCGAC]	-0.43 ± 0.062	1.48 ± 0.13	-0.145 ± 0.015	1.67 ± 0.089
GCUGUCACCGAGAAACUGUGAAGUAUAUCUUAAACCUGGGCACUUAAAAGAUAUAUGGAGUUAGUAGUGCAACCUGCUCGGUCUGAUGAGUCCGGACCCGGACGAAACAGC [GGACCC]	0.129 ± 0.17	1.86 ± 0.022	0.32 ± 0.061	1.93 ± 0.086
GCUGUCACCGAGAAACUGUGAAGUAUAUCUUAAACCUGGGCACUUAAAAGAUAUAUGGAGUUAGUAGUGCAACCUGCUCGGUCUGAUGAGUCCGUCAAUGGACGAAACAGC [GUCAAU]	-0.201 ± 0.12	1.63 ± 0.034	0.152 ± 0.028	1.78 ± 0.087
GCUGUCACCGAGAAACUGUGAAGUAUAUCUUAAACCUGGGCACUUAAAAGAUAUAUGGAGUUAGUAGUGCAACCUGCUCGGUCUGAUGAGUCCCGUCUCGGACGAAACAGC [CGUCUC]	0.2 ± 0.16	1.766 ± 0.015	0.3267 ± 0.0019	1.87 ± 0.11
GCUGUCACCGAGAAACUGUGAAGUAUAUCUUAAACCUGGGCACUUAAAAGAUAUAUGGAGUUAGUAGUGCAACCUGCUCGGUCUGAUGAGUCCUUUGUAGGACGAAACAGC [UUUGUA]	-0.5429 ± 0.0021	1.708 ± 0.002	-0.268 ± 0.088	1.85 ± 0.13
GCUGUCACCGAGAAACUGUGAAGUAUAUCUUAAACCUGGGCACUUAAAAGAUAUAUGGAGUUAGUAGUGCAACCUGCUCGGUCUGAUGAGUCCGUAAAUGGACGAAACAGC [GUAAAU]	-0.979 ± 0.044	1.6 ± 0.051	-0.774 ± 0.011	1.76 ± 0.084
GCUGUCACCGAGAAACUGUGAAGUAUAUCUUAAACCUGGGCACUUAAAAGAUAUAUGGAGUUAGUAGUGCAACCUGCUCGGUCUGAUGAGUCCGUAAUGGGACGAAACAGC [GUAAUG]	-0.57 ± 0.093	1.63 ± 0.061	-0.481 ± 0.029	1.75 ± 0.066
GCUGUCACCGAGAAACUGUGAAGUAUAUCUUAAACCUGGGCACUUAAAAGAUAUAUGGAGUUAGUAGUGCAACCUGCUCGGUCUGAUGAGUCCAGCUCGGGACGAAACAGC [AGCUCG]	-0.0835 ± 0.12	1.74 ± 0.095	0.217 ± 0.076	1.88 ± 0.039
GCUGUCACCGAGAAACUGUGAAGUAUAUCUUAAACCUGGGCACUUAAAAGAUAUAUGGAGUUAGUAGUGCAACCUGCUCGGUCUGAUGAGUCCACGGAGGGACGAAACAGC [ACGGAG]	-0.541 ± 0.036	1.46 ± 0.12	-0.151 ± 0.062	1.61 ± 0.15
